In article PMC6199252, “Characterization and improved properties of Glutamine synthetase from Providencia vermicola by site-directed mutagenesis” (Scientific Reports, 2018):

Target: the molecule itself
Test: SEC; tag-free purified protein on Superose 6 10/300 GL, 25 mM Tris-HCl pH 7.5, 150 mM NaCl; oligomer judged from the elution volume; data not shown

B1: Glutamine synthetase from Providencia vermicola (enzyme, UniProt A0AAX3RWL7 1-469, looked up)
chain: MSSEHVLSLIEEHKIKFIDLRFTDTKGKEQHITIPAHQVNEDFFEEGKMFDGSSIGGWKGINESDMVLMPDPSTAMLDPFFADPTLIIRCDILEPGTMQGYDRDPRSISQRAEDFLRSSGIADTVLFGPEPEFFIFDDIRFGNSMHSSYYHIDDIEAAWNTGTKYEGGNKGHRPGVKGGYFPVPPVDSSQDLRSAMCTTMEEMGLVVEAHHHEVATAGQNEVACRFNTMTKKADETQIYKYVVHNVAHAYGKTATFMPKPLVGDNGSGMHCHMSLSKDGINLFAGDKYGGLSEMALYYIGGIIKHARALNAFTNPTTNSYKRLVPGFEAPVMLAYSARNRSASIRIPVVASTKARRIEVRFPDPAANPYLAFAAQLMAGLDGIINKIHPGDAMDKNLYDLPPEEAKEIPTVAGSLEEALNELDKNREFLTRGGVFTNDAIDAYIELLRNDIQRVRMTPHPLEFEMYYSV
notes: Glutamine synthetase (GSI beta type, EC 6.3.1.2) of Providencia vermicola strain CGS6, cloned from genomic DNA; ORF of 1410 base pairs encoding 469 amino acids; Cloned between BamHI and XhoI of pGEX-6P-1; also called PveGS; GS; source: E. coli BL21 (DE3), pGEX-6p-1-PveGS, purified (GST Gene Fusion System, eluted from the GST tag by 3C protease); copies: 12
- stoichiometry N: 12
